Assays:
[1] = system: P19 murine embryonic carcinoma stem cell line; experiment: Stable transfection silencing screen of candidate UCOEs linked to Ef1α-GFP; type: cell-based, mouse; settings: UCOE-Ef1α-GFP stable transfection
Protocol: The candidate regions tested were Candidates 1, 1R, 3, 5, 6, 6R, 7, 8, 9R, 10, and 10R, with “R” denoting that the reverse orientation of the candidate region was tested. As a negative control, the stable expression construct without a UCOE or candidate region was assessed (Ef1a). As a positive control, the 2.2 kB A2UCOE sequence, as well as the 1.2 kB reverse orientation sequence 3′UCOE, were cloned into the same reporter construct as the candidate sequences. The percent GFP positive in the population was monitored as a metric for silencing by flow cytometry analysis with each passage, with the change (difference between final and initial time points) plotted on the graph (Δ% GFP+).
The assay is the same stable transfection screen format described for FIG. 2B. […]
Fluorescence data throughout silencing experiments was obtained using a MACSQuant® VYB flow cytometer (Miltenyi Biotec). EGFP was measured through the 488-nm laser and 525/50 nm band pass filter. Flow cytometry data was analyzed using the FlowJo™ single cell flow cytometry analysis software (Tree Star). […]
Candidates were initially screened in the P19 murine embryonic carcinoma stem cell line. […] As P19 cells readily integrate DNA, a stable transfection of the expression construct performed. […]

P19 cells = experiment: Standalone (intrinsic) promoter activity screen, UCOE-GFP construct lacking the Ef1a promoter; type: cell-based, mouse; settings: for inherent promoter activity: synthetic construct without other promoter
Text: A schematic representation of the expression construct in which the candidate region (UCOE) is inserted upstream of the GFP gene in the absence of any other promoter sequences as used is shown as an inlay. As positive controls, the Ef1α promoter, the 2.2 kB A2UCOE sequence, and the 1.2 kB reverse orientation sequence 3′UCOE, were cloned into the same reporter construct as the candidate sequences. The percent GFP positive in the population was monitored as a metric for gene expression by flow cytometry analysis with each passage (% GFP). Stably transfected cells were assayed for % GFP+ and median fluorescent intensity (normalized to Ef1a promoter control). Data is reported as mean±SD from biological duplicates.
P19 cells were seeded at 25,000 cells/well in 12 well plates. 24 h after seeding, cells were transfected using Lipofectamine™ 2000 transfection reagent (Thermo Fisher) according to the manufacturer's instructions using 500 ng DNA/well and 2.5 μL of Lipofectamine per well. 24 hours after transfection, selection was initiated with 1 μg/mL puromycin (Sigma-Aldrich) in regular growth media and, from then on, cells were passaged at 1:15 or 1:20 dilutions whenever cells were 80-90% confluent (every 2-3 days) with frequent refreshing of puromycin-containing media to clear dead cells. After approximately 14-16 days, remaining cells were assumed to be stably transfected and were changed to regular growth media to initiate silencing experiments. During silencing experiments, the P19 cells were passaged every 2-3 days and re-seeded at 15,000 cells/well.
Fluorescence data throughout silencing experiments was obtained using a MACSQuant® VYB flow cytometer (Miltenyi Biotec). EGFP was measured through the 488-nm laser and 525/50 nm band pass filter. Flow cytometry data was analyzed using the FlowJo™ single cell flow cytometry analysis software (Tree Star). After being gated for singlets and viability, GFP+ gates in FlowJo were drawn such that a non-transfected or non-transduced P19 cell population was at 1% GFP+. Median values reported are of cells within the GFP+ gate, both % GFP positive and median are reported with the standard deviation of biological replicates.
As A2UOCE dually functions as a protective regulatory element and a universal promoter, the candidate UCOEs were further screened for standalone promoter activity. A similar experiment as the aforementioned screen was performed using a similar expression construct that lacked the Ef1a promoter. This construct was used to assess whether the candidate sequences could drive reporter expression and act as stand-alone functional promoters. Candidates were compared to the positive control of the EF1a promoter, which had ˜70% GFP+ cells after two weeks of antibiotic selection, showing a distinct positive population in the fluorescence histogram. The GFP+ gate (i.e., flow cytometry fluorescence threshold for GFP+ cells) was set to encompass 1% of untransfected cells and then applied to all samples. […] Such a result appears as a bimodal distribution on a histogram, with a peak below the gate threshold (i.e., GFP negative cell population) and a peak above it (i.e., the distinct GFP positive population mentioned above). […] In this study, a % GFP+ of at least 50% is considered to reflect the existence of a second population in the histograms, and thus a binary indicator of promoter function. […] The median GFP intensity of the GFP+ population was used a measure of the strength of the promoter, and normalized to the Ef1a positive control as shown in FIG. 2C.
This aligns with previous observations that the RNPA2B1 promoter is much stronger than that of CBX3 (Zhang, F., et al. (2010) Mol Ther, 18, 1640-1649 (7)). However, the RNPA2B1 promoter in A2UCOE is only 30% as strong as the EF1α promoter. […]

B1: Candidate 6: Full length SRF-UCOE, SEQ ID NO:1; region between human SURF1 and SURF2 including first introns, chr9 (nucleic acid, listed as Homo sapiens)
DNA: GCACACGACCACAATTCCACTGAAAGCATTTTAATACGGAACTTGTCACTCCCAGGGAGCCTCCGCTCAGCCGGCAGTTGGTTCATTTCAATCCCCACGACAACCCTTCAAAGTGCAGGGCAGACAGCAGGTGGCTCTGCCCAGGCGCCTGGATCACAGCCCGGCCTGCAGCCCTCACCTGGGCGCGGGGAGACCCTGAGGACGCTCCTCCAGGCGGCGCTGGCCGGGGCCTGCGGACACGGACGGGCGGGCTGAGCTCCGGGACCCCTCCCCGCGCCCCGCACCCCGCACCCCGCACCCCGCACCCCGCACCCGGCGCTCACCCGTCCCAGCCCCGCCGCCCGCAGCCCCAGCTGCAACGCAGCCACCGCCGCCATCGCACCCGGCCCCGCGGGCGCTTCCGGGACGCAGGAGGCATCTGCATCCGGGGCGCCGCTGAGTCCCGCCCAGAGCCCCGCCCCCGGCTCCAGGTTCTGCGAGCGGCTTCCGCCGGGCTGCTCCGCGGGCGCGTCGGCCATGAGCGAGTTGCCGGGCGACGTGCGGGCGTTTCTGCGGGAGCACCCGAGCCTGCGGCTCCAGACGGACGCCCGCAAGGTTCGCAGCGCGGGAGGGGAACGGAGTGGCGGAGAAGGGCGCAGTTGGGATGAGGGGCTGAGGGGAGGGCAGGGGAGAGGAGAGGGCAGGGGAGAGGGGAGAGGGGAGAGCAGGAGAGAGGGGAAGGCAGGGGAGAGGGCGCGGCGGGATCAGGGGAGGAGAGGGAAGGGGGCGCGGCAGGAGGGGGCACCAGGGAGCGGAGCCCTGGCCCTCCTGACGTCCTGCCCGCCCACGCGTCCGCAGGTGAGGTGCATCCTGACAGGTCACGAGCTGCCCTGCCGCCTGCCGGAGCTCCAGGTCTACACCCGCGGCAAAAAGTACCAGCGGCTGGTCCGCGCCTCCCCGGCCTTCGACTATGCAGAGTTCGAGCCGCACATCGTGCCCAGCACCAAGAACCCGTAGGTGGTC
silencing resistance / stable expression relative to the negative (Ef1α-only) control ([1]; 19 days): significant improvement in stable expression | loss in percent GFP positive cells over the time period ([1]; over 19 days after puromycin removal, flow cytometry): about 6% | peaks in fluorescence histogram (binary indicator of promoter function) (P19 cells; at least 50% GFP+ = second population): only one peak | % GFP+ cells, representative flow cytometry example (P19 cells; promoterless GFP construct, after two weeks of antibiotic selection, one representative example): 1.99% | inherent promoter activity (P19 cells): did not exhibit inherent promoter activity | inherent promoter activity (P19 cells; listed as SRF-UCOE element): does not initiate transcription
